Data set [1] deals with HeLa Kyoto. In words: solubility in G1/S (NP-40 vs SDS abundance) (log2 ratio); higher = more soluble. The settings on record: cell cycle stage: G1/S.
For data set [2], the system named is HeLa Kyoto. The data set is described as follows: melting temperature (median over replicates), in situ; higher = more thermally stable.
In data set [3] the test system is HeLa Kyoto. In words: solubility change mitosis vs G1/S (difference of NP-40 vs SDS log2 ratios) (log2 ratio difference); higher = more soluble in mitosis.
For data set [4], the system named is HeLa Kyoto. In words: thermal stability score vs G1/S (z-score of summed log2 fold changes over temperatures); higher = more thermally stable than in G1/S.
Where [5] appears, read: cell cycle stage: early G1 (4.5 h after nocodazole release).
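Throughout, for melting temperature (median over replicates), in situ: HeLa Kyoto cells synchronized by double thymidine or nocodazole block, proteins quantified by TMT10plex mass spectrometry, three independent biological replicates.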
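Throughout, for solubility change mitosis vs G1/S (difference of NP-40 vs SDS log2 ratios): synchronized HeLa Kyoto cells (double thymidine block for G1/S, nocodazole release for mitosis), protein amounts in NP-40 versus SDS lysates quantified by mass spectrometry, three biological replicates.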
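Throughout, for solubility in G1/S (NP-40 vs SDS abundance): HeLa Kyoto cells arrested at G1/S by double thymidine block, proteins quantified by TMT10plex mass spectrometry in mild NP-40 versus SDS extracts, three biological replicates.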
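Throughout, for thermal stability score vs G1/S (z-score of summed log2 fold changes over temperatures): synchronized HeLa Kyoto cells, proteins quantified by TMT10plex mass spectrometry, three biological replicates, mitosis taken 0.5 h after nocodazole release, G1/S directly after double thymidine block.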

For “MAYAYLFKYIIIGDTGVGKSCLLLQFTDKRFQPVHDLTIGVEFGARMITIDGKQIKLQIWDTAGQESFRSITRSYYRGAAGALLVYDITRRDTFNHLTTWLEDARQHSNSNMVIMLIGNKSDLESRREVKKEEGEAFAREHGLIFMETSAKTASNVEEAFINTAKEIYEKIQEGVFDINNEANGIKIGPQHAATNATHAGNQGGQQAGGGCC [RAB2A]”, in the data set on HeLa Kyoto [1], the “solubility in G1/S (log2)” value was -0.194. Moreover, the melting temperature in the data set on HeLa Kyoto [2] (cell cycle stage: G1/S) amounted to 59.9 °C; with HeLa Kyoto [2] (cell cycle stage: mitosis), 61 °C. Further, the “solubility change mitosis (log2)” value in the data set with HeLa Kyoto [3] is -0.118. Moreover, the thermal stability score is -2.08 with HeLa Kyoto [4] (setting [5]) and -3.49 with HeLa Kyoto [4] (cell cycle stage: mitosis).
Consider “MTTLDDKLLGEKLQYYYSSSEDEDSDHEDKDRGRCAPASSSVPAEAELAGEGISVNTGPKGVINDWRRFKQLETEQREEQCREMERLIKKLSMTCRSHLDEEEEQQKQKDLQEKISGKMTLKEFAIMNEDQDDEEFLQQYRKQRMEEMRQQLHKGPQFKQVFEISSGEGFLDMIDKEQKSIVIMVHIYEDGIPGTEAMNGCMICLAAEYPAVKFCKVKSSVIGASSQFTRNALPALLIYKGGELIGNFVRVTDQLGDDFFAVDLEAFLQEFGLLPEKEVLVLTSVRNSATCHSEDSDLEID [PDCL]”, for which the “solubility in G1/S (log2)” value in the data set with HeLa Kyoto [1] was -0.0669. Besides, the melting temperature with HeLa Kyoto [2] (cell cycle stage: mitosis) was 51.5 °C. Besides, the “solubility change mitosis (log2)” value in the data set with HeLa Kyoto [3] is 0.0999. Moreover, the figures for the thermal stability score in the data set on HeLa Kyoto [4] (setting [5]) and in the data set with HeLa Kyoto [4] (cell cycle stage: mitosis) were 0.206 and -0.546, respectively.
“MAATLGPLGSWQQWRRCLSARDGSRMLLLLLLLGSGQGPQQVGAGQTFEYLKREHSLSKPYQGVGTGSSSLWNLMGNAMVMTQYIRLTPDMQSKQGALWNRVPCFLRDWELQVHFKIHGQGKKNLHGDGLAIWYTKDRMQPGPVFGNMDKFVGLGVFVDTYPNEEKQQERVFPYISAMVNNGSLSYDHERDGRPTELGGCTAIVRNLHYDTFLVIRYVKRHLTIMMDIDGKHEWRDCIEVPGVRLPRGYYFGTSSITGDLSDNHDVISLKLFELTVERTPEEEKLHRDVFLPSVDNMKLPEMTAPLPPLSGLALFLIVFFSLVFSVFAIVIGIILYNKWQEQSRKRFY [LMAN2L]”: the “solubility in G1/S (log2)” value in the data set on HeLa Kyoto [1] is -0.0714. Besides, the melting temperature in the data set on HeLa Kyoto [2] (cell cycle stage: G1/S) was 53.7 °C; with HeLa Kyoto [2] (cell cycle stage: mitosis), 54.1 °C. Also, the “solubility change mitosis (log2)” value in the data set on HeLa Kyoto [3] was -0.146. Also, the thermal stability score is -0.409 in the data set with HeLa Kyoto [4] (setting [5]) and -1.27 in the data set on HeLa Kyoto [4] (cell cycle stage: mitosis).
Consider “MNIMNTEQSQNSIVSRIKVFEGQTNIETSGLPKKPEITPRSLPPKPTVSSGKPSVAPKPAANRASGEWDSGTENRLKVTSKEGLTPYPPLQEAGSIPVTKPELPKKPNPGLIRSVNPEIPGRGPLAESSDSGKKVPTPAPRPLLLKKSVSSENPTYPSAPLKPVTVPPRLAGASQAKAYKSLGEGPPANPPVPVLQSKPLVDIDLISFDDDVLPTPSGNLAEESVGSEMVLDPFQLPAKTEPIKERAVQPAPTRKPTVIRIPAKPGKCLHEDPQSPPPLPAEKPIGNTFSTVSGKLSNVERTRNLESNHPGQTGGFVRVPPRLPPRPVNGKTIPTQQPPTKVPPERPPPPKLSATRRSNKKLPFNRSSSDMDLQKKQSNLATGLSKAKSQVFKNQDPVLPPRPKPGHPLYSKYMLSVPHGIANEDIVSQNPGELSCKRGDVLVMLKQTENNYLECQKGEDTGRVHLSQMKIITPLDEHLRSRPNDPSHAQKPVDSGAPHAVVLHDFPAEQVDDLNLTSGEIVYLLEKIDTDWYRGNCRNQIGIFPANYVKVIIDIPEGGNGKRECVSSHCVKGSRCVARFEYIGEQKDELSFSEGEIIILKEYVNEEWARGEVRGRTGIFPLNFVEPVEDYPTSGANVLSTKVPLKTKKEDSGSNSQVNSLPAEWCEALHSFTAETSDDLSFKRGDRIQILERLDSDWCRGRLQDREGIFPAVFVRPCPAEAKSMLAIVPKGRKAKALYDFRGENEDELSFKAGDIITELESVDDDWMSGELMGKSGIFPKNYIQFLQIS [SH3D19]”, for which the “solubility in G1/S (log2)” value in the data set on HeLa Kyoto [1] was determined as 0.173. The sequence further had a melting temperature with HeLa Kyoto [2] (cell cycle stage: mitosis) of 49 °C. Moreover, in the data set with HeLa Kyoto [3], the “solubility change mitosis (log2)” value was -0.127. Further, the thermal stability score was 0.0615 in the data set with HeLa Kyoto [4] (setting [5]) and -0.175 in the data set with HeLa Kyoto [4] (cell cycle stage: mitosis).
As to “MAAYLQWRRFVFFDKELVKEPLSNDGAAPGATPASGSAASKFLCLPPGITVCDSGRGSLVFGDMEGQIWFLPRSLQLTGFQAYKLRVTHLYQLKQHNILASVGEDEEGINPLVKIWNLEKRDGGNPLCTRIFPAIPGTEPTVVSCLTVHENLNFMAIGFTDGSVTLNKGDITRDRHSKTQILHKGNYPVTGLAFRQAGKTTHLFVVTTENVQSYIVSGKDYPRVELDTHGCGLRCSALSDPSQDLQFIVAGDECVYLYQPDERGPCFAFEGHKLIAHWFRGYLIIVSRDRKVSPKSEFTSRDSQSSDKQILNIYDLCNKFIAYSTVFEDVVDVLAEWGSLYVLTRDGRVHALQEKDTQTKLEMLFKKNLFEMAINLAKSQHLDSDGLAQIFMQYGDHLYSKGNHDGAVQQYIRTIGKLEPSYVIRKFLDAQRIHNLTAYLQTLHRQSLANADHTTLLLNCYTKLKDSSKLEEFIKKKSESEVHFDVETAIKVLRQAGYYSHALYLAENHAHHEWYLKIQLEDIKNYQEALRYIGKLPFEQAESNMKRYGKILMHHIPEQTTQLLKGLCTDYRPSLEGRSDREAPGCRANSEEFIPIFANNPRELKAFLEHMSEVQPDSPQGIYDTLLELRLQNWAHEKDPQVKEKLHAEAISLLKSGRFCDVFDKALVLCQMHDFQDGVLYLYEQGKLFQQIMHYHMQHEQYRQVISVCERHGEQDPSLWEQALSYFARKEEDCKEYVAAVLKHIENKNLMPPLLVVQTLAHNSTATLSVIRDYLVQKLQKQSQQIAQDELRVRRYREETTRIRQEIQELKASPKIFQKTKCSICNSALELPSVHFLCGHSFHQHCFESYSESDADCPTCLPENRKVMDMIRAQEQKRDLHDQFQHQLRCSNDSFSVIADYFGRGVFNKLTLLTDPPTARLTSSLEAGLQRDLLMHSRRGT [VPS11]”, in the data set on HeLa Kyoto [1], the “solubility in G1/S (log2)” value was -0.142. Besides, the values for the melting temperature in the data set on HeLa Kyoto [2] (cell cycle stage: G1/S) and with HeLa Kyoto [2] (cell cycle stage: mitosis) were 51.3 °C and 49.9 °C, respectively. The “solubility change mitosis (log2)” value in the data set with HeLa Kyoto [3] is -0.106. Further, the thermal stability score in the data set with HeLa Kyoto [4] (setting [5]) was -0.498; with HeLa Kyoto [4] (cell cycle stage: mitosis), -0.231.

The record behind these values is the supplement of paper PMC5998384.
